Measurements: publication PMC12607630, “ZapC crosslinks FtsZ filaments through a dual-binding mechanism modulated by the intrinsically disordered linker of FtsZ in Escherichia coli” (mBio, 2025)
Several values for one entry are separate records, joined by “and”; a condition that tells them apart may be missing. Identical values can stand only once.

Target: T1, FtsZ F285S (untagged) (Escherichia coli, UniProt P0A9A6 1-383, F285S)
T1 construct: FtsZ of Escherichia coli with F285S (globular domain); Derivative of pLY17 by site-directed mutagenesis; insert starts at codon 2 as in pLY17; source: E. coli BL21(DE3), plasmid pLY19, purified (Ni-NTA); 6×His-SUMO tag removed with Ulp1; not shown: 6×His-SUMO, N-terminal, cleaved
T1 sequence (looked up): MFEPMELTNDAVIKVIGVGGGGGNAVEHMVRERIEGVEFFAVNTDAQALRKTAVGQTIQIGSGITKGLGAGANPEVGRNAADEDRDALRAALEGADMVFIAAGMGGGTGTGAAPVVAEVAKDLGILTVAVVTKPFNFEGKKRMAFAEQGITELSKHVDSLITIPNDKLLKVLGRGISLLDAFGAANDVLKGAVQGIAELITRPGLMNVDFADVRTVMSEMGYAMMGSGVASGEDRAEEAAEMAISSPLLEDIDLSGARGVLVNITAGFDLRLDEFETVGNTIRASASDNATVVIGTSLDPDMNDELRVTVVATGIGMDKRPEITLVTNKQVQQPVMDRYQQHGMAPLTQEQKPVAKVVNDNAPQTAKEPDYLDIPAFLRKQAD
Experiment: BLI; 6×His-ZapC or its mutants (0.5 µM) loaded on Ni-NTA biosensors, untagged FtsZ or its variants in solution; Octet-Red96, 30°C, 1× Pol buffer (50 mM HEPES-NaOH pH 6.8, 50 mM KCl, 10 mM MgCl2); apparent Kd from the signal at the end of association against concentration, one-site fit; three repeats with mean (X) and SD
Settings: both partners purified

B1: 6×His-ZapC (natural protein)
chain: not shown
notes: ZapC, FtsZ-associated protein of Escherichia coli; Construction of pSD323 is not described; also called His-tagged ZapC; source: E. coli, plasmid pSD323 (pQE80, Plac::6×His-ZapC), purified (Ni-NTA); not shown: His6, N-terminal, kept
- Kd: 5.02 µM and 6.37 µM and 6.13 µM and 5.84 µM
